The target of this assay is QC (Homo sapiens, UniProt Q16769). Nature of the assay: LC/MS analysis of QC-catalyzed pyroglutamate formation. The class given is biochemical.
Sequence of QC (Q16769 29-361): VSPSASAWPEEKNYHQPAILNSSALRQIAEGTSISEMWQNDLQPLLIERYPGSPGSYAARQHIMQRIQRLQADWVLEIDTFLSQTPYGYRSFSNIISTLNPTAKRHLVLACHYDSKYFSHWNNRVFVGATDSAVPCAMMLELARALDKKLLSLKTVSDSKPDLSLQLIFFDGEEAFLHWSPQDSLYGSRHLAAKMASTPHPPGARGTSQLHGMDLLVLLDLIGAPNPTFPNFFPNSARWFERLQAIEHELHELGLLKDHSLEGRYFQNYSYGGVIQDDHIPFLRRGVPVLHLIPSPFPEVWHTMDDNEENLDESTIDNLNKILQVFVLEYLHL

B1: MCP-2 isoforms: Human Monocyte Chemotactic Protein 2 (MCP-2) isoforms, 76 residue chemokine (protein, UniProt P80075 24-99, looked up)
C-C motif chemokine 8: QPDSVSIPITCCFNVINRKIPIQRLESYTRITNIQCPKEAVIFKTKRGKEVCADPKERWVRDSMKHLDQIFQNLKP
As to B1, the “formation of N-terminal pyroglutamate catalyzed by QC” value is listed as “is catalyzed by QC”.

The record behind these values is patent publication US7462599B2, “Use of effectors of glutaminyl and glutamate cyclases” (Probiodrug AG, priority 2003, dated 2008).
